Results reported in patent publication US20140288149A1.

Biological target: IL-7 receptor (IL-7R), mouse (mouse) (UniProt P16872)
Assay: cell-based or functional assay

Chain of UniProt P16872 (P16872 21-459, chain 1 of 2): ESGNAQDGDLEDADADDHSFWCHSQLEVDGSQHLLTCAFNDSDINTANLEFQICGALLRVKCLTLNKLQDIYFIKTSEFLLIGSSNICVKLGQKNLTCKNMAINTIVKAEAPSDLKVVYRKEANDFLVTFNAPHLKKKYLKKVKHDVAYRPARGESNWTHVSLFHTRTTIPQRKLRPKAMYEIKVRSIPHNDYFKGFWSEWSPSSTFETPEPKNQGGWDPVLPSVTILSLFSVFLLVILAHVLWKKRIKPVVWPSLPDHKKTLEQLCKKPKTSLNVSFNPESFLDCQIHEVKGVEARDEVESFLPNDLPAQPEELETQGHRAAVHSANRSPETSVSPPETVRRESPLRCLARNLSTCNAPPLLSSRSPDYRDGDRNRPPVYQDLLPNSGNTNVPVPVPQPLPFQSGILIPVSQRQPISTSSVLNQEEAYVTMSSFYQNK
Chain of UniProt P16872 (P34902 23-369, chain 2 of 2, further chain): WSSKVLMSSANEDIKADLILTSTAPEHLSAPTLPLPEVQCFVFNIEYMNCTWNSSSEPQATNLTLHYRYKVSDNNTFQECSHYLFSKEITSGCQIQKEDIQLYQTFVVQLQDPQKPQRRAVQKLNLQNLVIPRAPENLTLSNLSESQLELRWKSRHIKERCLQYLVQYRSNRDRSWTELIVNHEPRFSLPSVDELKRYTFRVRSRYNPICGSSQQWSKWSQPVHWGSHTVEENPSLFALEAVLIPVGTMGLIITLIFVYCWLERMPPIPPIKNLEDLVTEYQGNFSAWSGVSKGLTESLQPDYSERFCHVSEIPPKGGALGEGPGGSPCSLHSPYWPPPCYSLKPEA

percentage of cells positive for pSTAT5 (flow cytometry / ImageStream), WT CD4+ T cells, 30 minutes of culture with IL-7: > 71%
percentage of cells positive for pSTAT5 (flow cytometry / ImageStream), mir-142-/- CD4+ T cells, 30 minutes of culture with IL-7: 8.7%
Substance: recombinant mouse IL-7 (from UniProt P10168 26-154) (ligand)
